The data set deals with the molecule itself. The data set is described as follows: SEC-MALS. On the technique in general: In gel filtration, larger molecules generally elute earlier.

B1: Get3 purified under reducing conditions (Get3red) (natural protein, yeast)
chain: MDLTVEPNLHSLITSTTHKWIFVGGKGGVGKTTSSCSIAIQMALSQPNKQFLLISTDPAHNLSDAFGEKFGKDARKVTGMNNLSCMEIDPSAALKDMNDMAVSRANNNGSDGQGDDLGSLLQGGALADLTGSIPGIDEALSFMEVMKHIKRQEQGEGETFDTVIFDTAPTGHTLRFLQLPNTLSKLLEKFGEITNKLGPMLNSFMGAGNVDISGKLNELKANVETIRQQFTDPDLTTFVCVCISEFLSLYETERLIQELISYDMDVNSIIVNQLLFAENDQEHNCKRCQARWKMQKKYLDQIDELYEDFHVVKMPLCAGEIRGLNNLTKFSQFLNKEYNPITDGKVIYELEDKE
What is called stoichiometry N is the number of molecules, sites or subunits per partner or assembly. For the protein B1, the “stoichiometry N” value was found to be 2.

B2: Get3 oxidised with 2 mM H2O2 / 50 µM Cu2+ (Get3ox) (natural protein, yeast)
chain: B1 chain
modifications: intramolecular disulfide bonds connecting the next-neighbor conserved cysteines (C242/C244 and C285/C288)
Take B2: the “stoichiometry N” value came out at 4.

For the origin of these results see article PMC4204210 (Molecular cell, 2014).
